Laboratory results taken from the supplement of paper PMC7125110.
± gives the standard error. Variants at the floor of the assay were thinned out.

B1: glmS ribozyme (parent)
chain: AUAAAAGCGCCAGAACUACAGAAAUGUAGUUGACGAGGAGGAGGUUUAUCGAAUUUUCGGCGGAUGCCUCCAAA

Variants of: B1
Assay: self-cleavage kobs at 640 uM GlcN6P; higher = faster cleavage; RNA array
Conditions: with glucosamine-6-phosphate
In short: (§1)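 kobs was derived by fitting per-tile medians to one- or two-exponential decays after normalising signals to baseline and to non-cleaving reference variants. Those signals came from barcoded ribozyme variants transcribed in situ by E. coli RNA polymerase on sequenced MiSeq chips, followed through a hybridised Cy3 probe at 37 °C and imaged over ~14 h. Glucosamine-6-phosphate (40 μM to 10 mM) in HEPES/KCl/Mg(OAc)2 buffer was flowed in. Weighted Michaelis–Menten fits across concentrations then gave kcat and KM.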

Variant	self-cleavage kobs at 640 uM GlcN6P [s⁻¹]
C11G U47G C50A C70G	0.000245 ± 6.2e-05
G13A C68G C71G	0.000118 ± 5e-05
U31C G60U C67G	< 1e-05
U45C A48U G60A	< 1e-05
C10G G13U G41U U49G	< 1e-05
G13C U56A C58G C71U	3.8e-05 ± 1.2e-05
G29A G32A U57C U69C	9.71e-05 ± 3.8e-05
G35C C67G C71G	< 1e-05
C10A C61G A64G C68G	9.09e-05 ± 4.3e-05
A15C U30C U31G U69G	0.00017 ± 4.8e-05
A6G U31G U45A A53G C61A G66C	< 1e-05
G7C C58G	< 1e-05
C34G A53C A64C	< 1e-05
G7A C16G A48U G60C C70A	< 1e-05
C10U A14U C16G U45G	< 1e-05
U30C G32U G44A A48C U57A	< 1e-05
C11U A15U C70G	0.000134 ± 4.8e-05
C10A C16U C67G	0.000345 ± 0.00015
G44U U46A A53U C70G	< 1e-05
C10G A36C G60A	< 1e-05
G13A G37A G66C	< 1e-05
U45G C50U C70U	< 1e-05
G40U U54C	0.000738 ± 0.00016

Variant	self-cleavage kobs at 640 uM GlcN6P [s⁻¹]
G7C A12G U46G U47A	< 1e-05
C11A A48U C70A	9.74e-05 ± 2.9e-05
A14C C16A G43U C68U	< 1e-05
G9C C34U U49C U65G	< 1e-05
C8U G66C C71G	< 1e-05
A12C G40A U65A	9.15e-05 ± 1.3e-05
A15U G35U G59A	< 1e-05
U30C A33G A52G	< 1e-05
A14G C34U A52C C68U C70U	8.57e-05 ± 4.2e-05
A6U G29U A52C	< 1e-05
A36U U56A	< 1e-05
G29A C34U G44C A53U C68U	< 1e-05
A14G C16U G41A	0.00178 ± 0.00032
C11G G13C A15G G43U G63C	< 1e-05
G7C G9C	< 1e-05
G41U G44U U45C	< 1e-05
C16G A33U G37U C68G C71U	8.54e-05 ± 3.1e-05
C58G A64G U65A G66U C67G U69C	9.79e-05 ± 2.9e-05
A14C A33C C67G	< 1e-05
C11G A12C C70U	6.11e-05 ± 2.5e-05
C16G U56C C58U	< 1e-05
G7A G38A G63U C70G	0.000112 ± 3.6e-05
C10G G44C	< 1e-05

Variant	self-cleavage kobs at 640 uM GlcN6P [s⁻¹]
G7A A53C C68U	< 1e-05
G7A C10U G29A U30G	< 1e-05
C10U G29A C61A G62A C70U	7.67e-05 ± 3.8e-05
A6G U49A	< 1e-05
G7C U56G C67U	< 1e-05
G40U G43U G51C U65C	< 1e-05
C10U C50U A53C	< 1e-05
C8U G13U U47C G51C	< 1e-05
U30G A39G G41U A48G U69C	< 1e-05
A14U A15C A33C C61G U65G	< 1e-05
G9U C11U U30G	< 1e-05
G13U G41U A52C	< 1e-05
C8A U54C A64C	< 1e-05
A36U U46C U49A C68G	< 1e-05
G40U C61G U65G	< 1e-05
A14C C16A C71G	6.58e-05 ± 2.7e-05
C11G G41U A48G A52C	< 1e-05
G9A G37A U56G	< 1e-05
G7A C11G A15C C50A U54C	< 1e-05
C11G A12U G38C A42U	< 1e-05
A14U C16A G66A	3.92e-05 ± 1.7e-05
G51A G63U U65A	< 1e-05
A6G A42C U56A C61G	< 1e-05

Variant	self-cleavage kobs at 640 uM GlcN6P [s⁻¹]
U49A C50U C67A C68G C71A	5.04e-05 ± 1.8e-05
U46G C50U A53C A64U	< 1e-05
G32U G41A C68A	< 1e-05
C11A A12U A36C A48C G60U G62A	< 1e-05
A12G C34G U47C	< 1e-05
C8G A33C U55G G62U C67A	< 1e-05
G7A G37C A39U U47G	< 1e-05
A14C G40U A52U	< 1e-05
G9C G63U G66A C68A C71A	< 1e-05
G40U G59C C71U	< 1e-05
C10U U47C U55G	< 1e-05
U47C C50A U69G	5.61e-05 ± 2.5e-05
C8A C16A A39U G59U	< 1e-05
G9A G51U A52C	< 1e-05
A39G G60A U69G	< 1e-05
G35C G37U	< 1e-05
C34U A53U C70G	0.000145 ± 4.1e-05
A39U G63C C71G	< 1e-05
G13U A14U A48U	< 1e-05
A42U C50G G62A C71U	< 1e-05
A14G C34U	< 1e-05
C11A U54A U55G G63U U65G	< 1e-05
A6U C10G A53C G62U	< 1e-05

Variant	self-cleavage kobs at 640 uM GlcN6P [s⁻¹]
A33G A36U C70G	0.000157 ± 5.3e-05
G13C U57C C58A	< 1e-05
A33U U57G C68G	0.000105 ± 2.8e-05
U31G U45C A53G	0.000175 ± 3.2e-05
C8A G9C G29C G35U	< 1e-05
G13A A53G G66A	6.41e-05 ± 2.2e-05
G29U G32A G44A A64U	< 1e-05
A6C A53U C70U	6.59e-05 ± 3.2e-05
G21U U47G	0.00247 ± 0.00049
G41A G44U C70A	< 1e-05
C8U U47G	< 1e-05
A6G A42C A52U C68A	< 1e-05
C8U G35A G60C U65G	< 1e-05
A12U C68A	7.24e-05 ± 3.4e-05
A12G A33C C50A C68G	0.000144 ± 6.5e-05
G9U U31A	< 1e-05
U47C U54G G60A	< 1e-05
A15G C58A U69G	0.000122 ± 3.7e-05
U54A C61G C71G	7.31e-05 ± 1.7e-05
A12C U47A C50A U55A C58U A64G	< 1e-05
U30A A33G U57C	< 1e-05
C8U A14U U57C G59U	< 1e-05
C58G A64C C67U	7.21e-05 ± 2e-05

Variant	self-cleavage kobs at 640 uM GlcN6P [s⁻¹]
A33U A39U G41C G43A C70G	< 1e-05
U31A A36U A48U U69C	< 1e-05
U45A U46C U47G C70U	0.000175 ± 8.3e-05
U31A C34U G51U	< 1e-05
G40A A52C G59A C68U	< 1e-05
G35C A39C G43C U56A	< 1e-05
G9U C10U C34G A53U G63C U65A	< 1e-05
A6U U55G A64C	< 1e-05
G7C A14C A52U	< 1e-05
C11U A15C U31C	6.01e-05 ± 2.1e-05
G7U G41A U69G	< 1e-05
A6G G40A U54G C67A	< 1e-05
C16U A33G C50U U54G	< 1e-05
A6C G9U A52G	< 1e-05
G7A A42C A52G U55A	< 1e-05
A33U G40U A52U U57G	< 1e-05
A14C U65A C70U	0.000125 ± 3.2e-05
C16U U31C G32C G44A U49G C61G U65A	< 1e-05
G9U U46G C58G	< 1e-05
C10G A14G A36C G62U	< 1e-05
A14G U31A G41A C71U	0.000186 ± 7.9e-05
G37U A39U A52C G59A	< 1e-05
G32C A42U A53G U57A A64G	< 1e-05

Variants of: B1
Assay: self-cleavage kobs at 2500 uM GlcN6P; higher = faster cleavage; RNA array
Conditions: with glucosamine-6-phosphate
In short: as §1

Variant	self-cleavage kobs at 2500 uM GlcN6P [s⁻¹]
C11G U47G C50A C70G	0.000139 ± 4e-05
G13A C68G C71G	0.000141 ± 3.4e-05
U31C G60U C67G	< 1e-05
U45C A48U G60A	< 1e-05
G13C U56A C58G C71U	6.28e-05 ± 1.9e-05
G7A C16G A48U G60C C70A	< 1e-05
U30C G32U G44A A48C U57A	< 1e-05
G40U U54C	0.00431 ± 0.0006
A14C C16A G43U C68U	< 1e-05
A12C G40A U65A	0.000293 ± 5.4e-05
A14G C16U G41A	0.0028 ± 0.00078
C11G G13C A15G G43U G63C	< 1e-05
G7C G9C	< 1e-05
G41U G44U U45C	< 1e-05
C11G A12C C70U	8.42e-05 ± 2.9e-05
C10G G44C	< 1e-05
G7A A53C C68U	< 1e-05
U30G A39G G41U A48G U69C	< 1e-05
A14U A15C A33C C61G U65G	< 1e-05

Variant	self-cleavage kobs at 2500 uM GlcN6P [s⁻¹]
C8A U54C A64C	< 1e-05
G40U C61G U65G	< 1e-05
A14C C16A C71G	4.2e-05 ± 2.1e-05
C11G G41U A48G A52C	< 1e-05
G7A C11G A15C C50A U54C	< 1e-05
C11G A12U G38C A42U	< 1e-05
A14U C16A G66A	0.000107 ± 2.6e-05
U46G C50U A53C A64U	< 1e-05
C11A A12U A36C A48C G60U G62A	< 1e-05
C8G A33C U55G G62U C67A	< 1e-05
G9C G63U G66A C68A C71A	< 1e-05
G40U G59C C71U	< 1e-05
U47C C50A U69G	9.43e-05 ± 2.6e-05
G9A G51U A52C	< 1e-05
A39U G63C C71G	< 1e-05
G13U A14U A48U	< 1e-05
A42U C50G G62A C71U	< 1e-05
A6U C10G A53C G62U	< 1e-05
A33U U57G C68G	0.000205 ± 7e-05

Variant	self-cleavage kobs at 2500 uM GlcN6P [s⁻¹]
U31G U45C A53G	0.000528 ± 9.1e-05
C8A G9C G29C G35U	< 1e-05
A6G A42C A52U C68A	< 1e-05
A12U C68A	2.89e-05 ± 1.2e-05
A12G A33C C50A C68G	0.00016 ± 6.5e-05
G9U U31A	< 1e-05
A15G C58A U69G	8.9e-05 ± 2.5e-05
U54A C61G C71G	0.000139 ± 4.6e-05
U31A C34U G51U	< 1e-05
G7C A14C A52U	< 1e-05
C11U A15C U31C	0.000159 ± 5e-05
A6G G40A U54G C67A	< 1e-05
C16U A33G C50U U54G	< 1e-05
G7A A42C A52G U55A	< 1e-05
A33U G40U A52U U57G	< 1e-05
C16U U31C G32C G44A U49G C61G U65A	< 1e-05
G9U U46G C58G	< 1e-05
A14G U31A G41A C71U	0.000396 ± 0.00011
G32C A42U A53G U57A A64G	< 1e-05

Variants of: B1
Assay: self-cleavage kobs at 10000 uM GlcN6P; higher = faster cleavage; RNA array
Conditions: with glucosamine-6-phosphate
In short: as §1

Variant	self-cleavage kobs at 10000 uM GlcN6P [s⁻¹]
C11G U47G C50A C70G	7.52e-05 ± 1.9e-05
A36U U56A	< 1e-05
A6G U49A	< 1e-05
U30G A39G G41U A48G U69C	< 1e-05
A14G C34U	< 1e-05
C8U U47G	< 1e-05
G9U U31A	< 1e-05
C16U A33G C50U U54G	< 1e-05
A6C G9U A52G	< 1e-05
